Measured values as given in US20240150465A1 (Chugai, published 2024).
Substitutions are numbered along the chain they refer to.

T1: recombinant human DLL3 (human, UniProt Q9NYJ7 27-492)
T1 sequence: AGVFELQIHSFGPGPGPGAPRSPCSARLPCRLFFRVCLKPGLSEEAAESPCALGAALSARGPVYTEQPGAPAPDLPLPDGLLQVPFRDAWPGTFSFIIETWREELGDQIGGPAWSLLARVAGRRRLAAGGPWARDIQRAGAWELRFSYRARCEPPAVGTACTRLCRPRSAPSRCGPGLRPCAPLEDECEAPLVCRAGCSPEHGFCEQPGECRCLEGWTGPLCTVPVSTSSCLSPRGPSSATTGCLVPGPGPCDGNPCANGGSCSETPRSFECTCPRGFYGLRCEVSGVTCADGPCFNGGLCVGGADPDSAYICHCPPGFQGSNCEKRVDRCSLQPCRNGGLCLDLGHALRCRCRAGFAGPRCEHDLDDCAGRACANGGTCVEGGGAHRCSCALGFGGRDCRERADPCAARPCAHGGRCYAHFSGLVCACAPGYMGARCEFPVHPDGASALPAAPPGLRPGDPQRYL

B1: D30841AE05-SG1 (antibody, human IgG1, kappa, V domains shown)
VH: QVQLKESGPALVKPTQTLTLTCTFSGFSLSSSYDMGWVRQAPGQGLEWMGTIYTGDYSTDYASWAKGRVTITADESTSTAYMELSSLRSEDTAVYYCARNTGYGYFGLWGQGTLVTVSS
VL: DIQLTQSPSFLSASVGDRVTITCQSTESVYGSDWLSWYQQKPGQPPKLLIYQASNLEIGVPSRFSGSGSGTDFTLTINSLEAEDAATYYCQGYYSGYIYAFGGGTKVEIKR
notes: Humanized variant of DLA0841 with SG1 heavy and SK1 light constant regions; Labelled with NHS-PEG4-Biotin when used as the first (immobilized) antibody in the Octet assay
B2: DLL3-14-SG1 (antibody, human IgG1, kappa, V domains shown)
VH: QVQLVQSGAEVKKPGASVKVSCKASGYTFTNYYMHWVRQAPGLGLEWMGIINPSDGSTSYAQKFQGRVTMTRDTSTNTVYMDLSSLRSEDTAVYYCARGGNSAFYSYYDMDVWGQGTTVTVSS
VL: DVVMTQTPLSLPVTLGQPASISCRSSQSLVYRDGNTYLSWFQQRPGQSPRRLIYKVSNWQSGVPDRFSGGGSGTDFTLKISRVEAEDVGVYYCMQGTHWPPTFGQGTKVEIKR
notes: Variable regions of a previously reported anti-DLL3 antibody on SG1/SK1; Used as a second antibody only
B3: DLL3-6-SG1 (antibody, human IgG1, kappa, V domains shown)
VH: QVQLQESGPGLVKPSETLSLTCTVSGASISSFYWSWIRQPPGKGLEWIGYIYYSGTTNYNPSLKSRVTISVDTSKNQFSLKLSSVTAADTAVYYCARIAVAGFFFDYWGQGTLVTVSS
VL: EIVLTQSPGTLSLSPGERATLSCRASQSVNKNYLAWYQQKPGQAPRLLIYGASSRATGIPDRFSGSGSGTDFTLTISRLEPEDFAVYYCQQYDRSPLTFGGGTKVEIKR
notes: as for B2
B4: DLL3-4-SG1 (antibody, human IgG1, kappa, V domains shown)
VH: B3 VH with A27G, F32Y, I51V, R97S, A101T, F104Y
VL: B3 VL with A19V, S28R, K31N, K40R, V105L
notes: as for B2
B5: DLL3-22-SG1 (antibody, human IgG1, kappa, V domains shown)
VH: B3 VH with A27D, F32Y, S35T, N76S, R97S, A101R
VL: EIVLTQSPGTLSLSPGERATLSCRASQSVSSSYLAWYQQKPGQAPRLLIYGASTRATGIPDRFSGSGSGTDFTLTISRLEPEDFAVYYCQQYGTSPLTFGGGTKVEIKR
notes: as for B2
B6: DL312-SG1 (antibody, human IgG1, kappa, V domains shown)
VH: EVKLVESGGGLVQPGGSLSLSCAASGFTFTDYYMNWVRQPPGKALEWLALIRNKANGYTTEYNASVKGRFTISRDNSQNILYLQMNALRAEDSATYYCARDSDGYYEYYFDYWGQGTTLTVSS
VL: DIQMTQSPSSLSASLGERVSLTCRASQEISDYLSWLQQKPDGTIKRLIFAASTLDSGVPKRFSGSRSGSDFSLSISSLESEDFADYYCLQYASYPYTFGSGTKLEIKR
notes: Variable regions of a previously reported anti-DLL3 antibody on SG1/SK1; Also used biotin-labelled as a first antibody
B7: DL306-SG1 (antibody, human IgG1, kappa, V domains shown)
VH: EVQLQQSGPELVKPGASVKMSCRASGYTFTDYYMKWVKQSHGKSLEWIGDINPNNGDTFYNQKFKGKATLTIDKSSSTAYMQLNSLTSDDSAVYYCARDGNYAYFDYWGQGTTLTVSS
VL: DIVLTQSPASLAVSLGQRATISCRASKSVSTSGYSYMHWYQQKPGQPPKLLIFLASNLESGVPARFSGSGSGTDFTLNIHPVEEEDAATYYCQHSRHLPWTFGGGTKLEIKR
notes: as for B6
B8: DL309-SG1 (antibody, human IgG1, kappa, V domains shown)
VH: QVQLQQSGGDLMKPGASVKISCKAAGYTFSNYYIEWVKQRPGHGLEWIGEILPGSGSTTYNEKFKGKASFTADTSSNTAYMQLSSLTSEDSAVYYCARWGAREPGFPYWGQGTLVTVSA
VL: DIVMTQSQKFMSTSVGDRVSVTCKASQNVGTNVAWYQQKPGQSPKALIYSASYRYSGVPDRFTGSGSGTDFTLTISNVQSEDLAEYFCQQYNNYPLTFGAGTKLELKR
notes: as for B6
B9: DL301-SG1 (antibody, human IgG1, kappa, V domains shown)
VH: QVQLQQSGADLVRPGTSVKVSCKASGYAFTNYLIEWIKQRPGQGLEWIGVMNPGSGGTHYSEKFRGKATLTADKSSSTAYMQLISLTSDDSAVYFCARSDYDYVTYAMDYWGQGTSVTVSS
VL: DIKMTQSPSSMYASLGERVTITCKASQDINSYLIWFQQKPGKSPKTLIYRTNRLVDGVPSRFSGSGSGQDYSLTISSLEYGDMGIYYCLQYDEFPFTFGSGTKLEIKR
notes: as for B6

Target: T1, recombinant human DLL3
Assay: Octet binning on SA sensor; Antibody A (biotinylated, loaded first): DL312-SG1; then 20 nM human DLL3, then 80 nM Antibody B
Procedure: (§1) Octet (registered trademark) RED384 (Fortebio) was used to perform competitive binding assays by epitope binning for a panel of antibodies. A biotinylated antibody (DL301-SG1, DL306-SG1, DL309-SG1, DL312-SG1, D30316AE02-SG1, and D30841AE05-SG1) at 40 nM was first loaded to a streptavidin (SA) biosensor. Next, the sensor is exposed to 20 nM of human DLL3, followed by exposure to 80 nM of second antibody. The second antibodies are DL301-SG1, DL306-SG1, DL309-SG1, DL312-SG1, D30316AE02-SG1, D30841AE05-SG1, DLL3-14-SG1, DLL3-22-SG1, DLL3-4-SG1 and DLL3-6-SG1. Raw data was processed using ForteBio's Data Analysis Software 7.0 and the antibody pairs were assessed for competitive binding. Additional binding by the second antibody indicates an unoccupied epitope (non-competitor), while no binding indicates epitope blocking (competitor).
(§2) The competition ratio of antibody B to antibody A was calculated using the following equation: Competition Ratio (Antibody B to Antibody A)=[Binding Response (Antibody B-Antigen)]/[Binding Response (Antigen-Antibody A)]

| competition ratio (Antibody B to Antibody A) | Binder |
| --- | --- |
| 1.1 | B1 |
| 1.5 | B2 |
| 1.3 | B3 |
| 1.3 | B4 |
| 1.3 | B5 |
| 0.2 | B6 |
| 1.2 | B7 |
| 1.5 | B8 |
| 1.3 | B9 |

Target: T1, recombinant human DLL3
Assay: Octet binning on SA sensor; Antibody A (biotinylated, loaded first): DL309-SG1; then 20 nM human DLL3, then 80 nM Antibody B
Procedure: as §1, §2

| competition ratio (Antibody B to Antibody A) | Binder |
| --- | --- |
| 0.8 | B1 |
| 1 | B2 |
| 1 | B3 |
| 1 | B4 |
| 0.9 | B5 |
| 1.1 | B6 |
| 0.9 | B7 |
| -0.1 | B8 |
| 1.2 | B9 |

Target: T1, recombinant human DLL3
Assay: Octet binning on SA sensor; Antibody A (biotinylated, loaded first): D30841AE05-SG1; then 20 nM human DLL3, then 80 nM Antibody B
Procedure: as §1, §2

| competition ratio (Antibody B to Antibody A) | Binder |
| --- | --- |
| 0 | B1 |
| 1.4 | B2 |
| 1.3 | B3 |
| 1.3 | B4 |
| 1.3 | B5 |
| 1.4 | B6 |
| 0 | B7 |
| 1.5 | B8 |
| 1.3 | B9 |

Target: T1, recombinant human DLL3
Assay: Octet binning on SA sensor; Antibody A (biotinylated, loaded first): D30316AE02-SG1; then 20 nM human DLL3, then 80 nM Antibody B
Procedure: as §1, §2

| competition ratio (Antibody B to Antibody A) | Binder |
| --- | --- |
| 1.3 | B1 |
| 1.4 | B2 |
| 1.3 | B3 |
| 1.3 | B4 |
| 1.3 | B5 |
| 1.4 | B6 |
| 1.5 | B7 |
| 1.4 | B8 |
| 1.3 | B9 |

Target: T1, recombinant human DLL3
Assay: Octet binning on SA sensor; Antibody A (biotinylated, loaded first): DL306-SG1; then 20 nM human DLL3, then 80 nM Antibody B
Procedure: as §1, §2

| competition ratio (Antibody B to Antibody A) | Binder |
| --- | --- |
| -0.1 | B1 |
| 1.4 | B2 |
| 1.3 | B3 |
| 1.3 | B4 |
| 1.3 | B5 |
| 1.4 | B6 |
| 0 | B7 |
| 1.4 | B8 |
| 1.3 | B9 |

Target: T1, recombinant human DLL3
Assay: Octet binning on SA sensor; Antibody A (biotinylated, loaded first): DL301-SG1; then 20 nM human DLL3, then 80 nM Antibody B
Procedure: as §1, §2

| competition ratio (Antibody B to Antibody A) | Binder |
| --- | --- |
| 0.9 | B1 |
| 1.2 | B2 |
| 1.2 | B3 |
| 1.2 | B4 |
| 1.2 | B5 |
| 1 | B6 |
| 1.1 | B7 |
| 1.4 | B8 |
| -0.1 | B9 |
